# Results taken from patent publication US7790697B2, “Compositions and methods for inhibiting the synthesis or expression of MMP-1” (Trustees of Dartmouth College, priority 2004, dated 2010).
# B1: MMP-1 shRNA: Vector-expressed small hairpin RNA, SEQ ID NO:1 (sense) and SEQ ID NO:2 (antisense), specific to bases 234-252 of MMP-1 mRNA (nucleic acid)
# sense: GATCCCCACCAGATGCTGAAACCCTGTTCAAGAGACAGGGTTTCAGCATCTGGTTTTTTGGAAA
# antisense: AGCTTTTCCAAAAAACCAGATGCTGAAACCCTGTCTCTTGAACAGGGTTTCAGCATCTGGTGGG
# modifications: the letters are possibly those of the target site
# System: interferon-responsive genes
# Experiment: Interferon response RT-PCR assay
# Format: cell-based, human
# Settings: pooled stable MDA-231 cell lines
# Procedure: Interferon Response RT-PCR Assay. RNA pooled from MDA-231 ells containing empty vector or the MMP-1 shRNA were reverse-transcribed with M-MLV reverse transcriptase (INVITROGEN™) according to the manufacturer's instructions. Briefly, 3 μg of RNA, 99 ng random hexamers, and 10 nmoles of dNTP were combined to a total volume of 12 μL. The mixture was incubated at 65° C. for 5 minutes and cooled to 4° C. Four μL of 5× […], 2 μL of 0.1 M DTT, and 1 μL of RNase inhibitor A (40 U/μL) were then added to the reaction and it was incubated at 37° C. for 2 minutes. One μL of M-MLV reverse transcriptase was added to the reaction and incubated at 25° C. for 10 minutes, 37° C. for 50 minutes and 70° C. for 15 minutes. The expression levels of 11 interferon-responsive genes and GAPDH were then estimated using semi-quantitative PCR and the human interferon-response MULTIGENE-12™ RT-PCR Profiling Kit (SuperArray Bioscience Co., Frederick, Md.).
# To determine whether the MMP-1 shRNA was producing a shRNA-associated interferon response in the stable cell lines, the expression levels of 11 interferon-responsive genes was compared between pools of stable cell lines (Bridge, et al. (2003) Nat. Genet. 34:263-4).
molecule,measurement,setting,value
B1,interferon response overall (11 interferon-responsive genes),,no consistent upregulation of interferon-responsive gene expression
same,increase in expression of MxA and GBP1 compared to empty vector cell lines,semi-quantitative RT-PCR,~50%
